From patent US11440969B2, “Use of human epididymis protein 4 (HE4) for assessing responsiveness of MUC 16-positive cancer treatment” (Genentech, Inc., priority 2016, dated 2022)

Test system: platinum-resistant ovarian cancer
Test: Clinical activity of anti-MUC16-TDC (RECIST v1.1) in ovarian cancer patients
Assay type: in vivo, human
Details: 1.0-5.6 mg/kg q3w
Description: This Phase I, multicenter, open-label, dose escalation study was designed to identify the recommended Phase II dose (RP2D) of DMUC4064A (anti-MUC16-TDC) in platinum-resistant ovarian cancer patients and unresectable pancreatic cancer patients. The study employed a traditional 3+3 dose escalation design to determine the maximum tolerated dose (MTD), and the patients were administered intravenous (IV) DMUC4064A (Genentech Inc.) 1.0-5.6 mg/kg every three weeks (q3w) to evaluate the safety, tolerability, and pharmacokinetics of DMUC4064A.
Ovarian cancer patients had advanced epithelial ovarian, primary peritoneal, or fallopian tube cancer that progressed or relapsed within 6 months after the most recent treatment with a platinum-containing chemotherapy regimen. […] Progression or relapse from prior platinum-based chemotherapy was documented by RECIST v1.1. Patients were allowed ≤2 prior chemotherapy regimens.
Treatment (using anti-MUC16-TDC) response rate was estimated for patients with disease that was measurable by RECIST guidelines. Patients were identified as having a partial response (PR), stable disease (SD), or progressive disease (PD) as measured by RECIST v1.1. Objective response is defined as a complete or partial response, as determined by investigator assessment and confirmed by repeat assessments ≥4 weeks after initial documentation. Duration of objective response was defined as the time from the initial complete or partial response to the time of disease progression or death.

[1] = end point of the clinical trial

B1: DMUC4064A (conjugate, chains of the INN, looked up)
VH: EVQLVESGGGLVQPGGSLRLSCAASGYSITNDYAWNWVRQAPGKGLEWVGYISYSGYTTYNPSLKSRFTISRDTSKNTLYLQMNSLRAEDTAVYYCARWTSGLDYWGQGTLVTVSS
VL: DIQMTQSPSSLSASVGDRVTITCKASDLIHNWLAWYQQKPGKAPKLLIYGATSLETGVPSRFSGSGSGTDFTLTISSLQPEDFATYYCQQYWTTPFTFGQGTKVEIK
modifications: vedotin payload (MMAE)
additional patients with a partial response at some point during the study: six | patients with progressive disease (conclusion of the study): ten | patients who maintained stable disease [1]: 23 | patients with a partial response to treatment [1]: two
